For this data set, the target named is HuR (Human antigen R, ELAVL1) (UniProt Q15717 Q15717:1-326). The experiment in a line: SPR; localized SPR (LSPR) on gold nanoparticle arrays; sizable red shift on HuR addition; inhibitor CMLD-1 disrupted binding (10 nm leftward shift). The conditions noted are these: tags: Novus Biologicals H00001994-P01; tethered by base pairing to thiolated ssDNA on gold nanoparticles. The method, then:
Next a target RNA strand containing a DNA hybridizing region, which binds via base pair matching with the ssDNA on the nanoparticle, and a hairpin loop containing a HuR target binding site. The specific target RNA strand used (SEQ ID NO 7) contains a specific HuR binding motif, has the RNA sequence 5′-GCG-AAU-UGG-GCC-CGA-CGU-CGC-AUG-GCU-UUU-AUU-UAU-UUU-GCA-UGG-CCG-CGG-GAU-3′, and was from Integrated DNA Technologies (IDT). Last, the HuR protein is added and binds to its target site withing the RNA hairpin loop. The specific HuR protein used was a recombinant HuR protein from Novus Biologicals (product #:H00001994-P01). For each step of the assembly, sizable LSPR shifts were observed, confirming our ability to quantitatively measure the expected binding at each step (FIG. 11A-C).
On the technique in general: Surface plasmon resonance follows binding to a sensor surface in real time, without labels.

Sequence of HuR (Human antigen R, ELAVL1) (Q15717 whole entry, one chain of several): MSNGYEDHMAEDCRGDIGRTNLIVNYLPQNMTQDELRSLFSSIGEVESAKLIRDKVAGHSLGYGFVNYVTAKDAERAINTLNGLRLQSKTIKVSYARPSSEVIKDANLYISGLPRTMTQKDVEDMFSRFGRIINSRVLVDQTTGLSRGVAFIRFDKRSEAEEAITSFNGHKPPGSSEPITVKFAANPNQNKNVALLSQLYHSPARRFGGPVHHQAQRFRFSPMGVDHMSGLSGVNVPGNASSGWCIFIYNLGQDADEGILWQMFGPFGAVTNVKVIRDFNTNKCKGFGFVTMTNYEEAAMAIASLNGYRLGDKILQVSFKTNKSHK

B1: HuR target RNA with DNA-hybridizing region and hairpin loop (ssRNA)
RNA: GCGAAUUGGGCCCGACGUCGCAUGGCUUUUAUUUAUUUUGCAUGGCCGCGGGAU
Consider B1, for which the binding result was “binds”.

The values are drawn from US20190117772, “METHODS FOR THE TREATMENT OF CARDIAC HYPERTROPHY” (UNIVERSITY OF CINCINNATI, published 2019).
